The target of one data set is p53 (Homo sapiens, UniProt P04637). Description: Coimmunoprecipitation of fortilin and p53 from U2OS cell lysates. More on the design: endogenous in cells; host or cells: U2OS. In kind it is binding. On the procedure:
As in example 2, studies were initiated to determine whether p53 and Fortilin specifically interact in U2OS cells. Six million U2OS cells stably expressing either HA-fortilin or HA-only were suspended in lysis-binding-wash buffer (50 mM HEPES, pH7.5, 70 mM KCl, 0.5 mM ATP, 5 mM MgSO4, 1 mM DTT, 0.1% NP40, 2 mg/mL BSA, Aprotinin, PMSF, MG132 and protease inhibitor cocktail). Cells were then mechanically disrupted by nitrogen excavitation method. Cleared total cell lysates were incubated with […] anti-HA antibody (3F10, Roche), followed by the incubation with anti-mouse IgG conjugated to magnetic beads (Dynal USA) and extensive wash with lysis-binding-wash buffer.
Further experiments were conducted to determine in vivo immunoprecipitation of fortilin by p53. Twenty million U2OS cells were suspended in lysis-binding buffer (50 mM HEPES, pH7.5, 70 mM KCl, 0.5 mM ATP, 5 mM MgSO4, 1 mM DTT, 0.001% NP40, 2 mg/mL BSA, Aprotinin, PMSF, MG132 and protease inhibitor cocktail). Cells were then mechanically disrupted by nitrogen excavitation method. Cleared total cell lysates were divided equally into two eppendorf tubes. To the first tube, anti-p53 antibody (DO-1, […]) was added, while […] control monoclonal antibody was added to the second tube. After incubation, formed complexes were precipitated by goat anti-mouse IgG conjugated to magnetic beads (Dynal USA), followed by extensive wash. […]

In another data set the target is FLAG-MCL1 (Homo sapiens, UniProt Q07820). In kind it is binding. To be noted: COS cell lysate, anti-HA immunoprecipitation.
Sequence of FLAG-MCL1 (Q07820 whole entry): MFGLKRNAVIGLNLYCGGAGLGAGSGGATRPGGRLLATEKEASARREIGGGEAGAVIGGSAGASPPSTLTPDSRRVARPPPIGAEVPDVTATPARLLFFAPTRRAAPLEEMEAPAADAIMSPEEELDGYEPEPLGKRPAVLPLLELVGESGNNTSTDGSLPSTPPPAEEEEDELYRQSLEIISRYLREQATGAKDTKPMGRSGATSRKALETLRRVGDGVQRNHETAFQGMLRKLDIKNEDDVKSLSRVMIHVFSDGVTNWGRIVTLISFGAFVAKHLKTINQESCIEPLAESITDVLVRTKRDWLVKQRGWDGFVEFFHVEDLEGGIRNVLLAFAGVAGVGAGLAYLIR
The subject of data set [1] is MCL1. In kind it is cell-based.
Data set [2] addresses T1, MCL1 (Homo sapiens, UniProt Q07820). Description: Yeast two-hybrid assay, X-gal filter lift. Type of data set: binding. To be noted: Saccharomyces cerevisiae SFY526 cells. From the text:
Yeast two-hybrid assay. Saccharomyces cerevisiae SFY526 cells (CloneTech) were cotransformed with (a) empty pAS2.1 vector or pAS2.1 vector containing a full-length MCL1 construct and (b) empty pACT2 vector or pACT2 vector containing FL1, the original clone isolated from yeast two-hybrid screening and representative of the nearly full-length Fortilin molecule (amino acids 5-172). FL1 was redesignated as FortilinΔ5-172. Transformed cells were selected on SD plates lacking tryptophan and leucine (SD/-Trp/-Leu plates) for 7 days and subjected to a X-gal filter lift assay as described above. The blue color that developed within 8 hours was considered to represent a positive interaction.
The yeast two-hybrid system was employed to evaluate any interaction between Fortilin and MCL1. Saccharomyces cerevisiae SFY526 cells were co-transformed with pAS2.1 or pAS2.1-MCL1 and pGAD GH or pGAD GH-FL1, the 5th-172st amino acids of Fortilin. Transformed cells were selected on SD/-Trp/-Leu plates. Grown colonies on these selection plates were subjected to a X-gal filter lift assay, as the reporter gene was […] under the control of a promoter containing the element recognized by the DNA binding domain. […] MCL1 consists of four BH (Bcl-2 homology) domains and two PEST (proline (P), glutamic acid (E), serine (S) and threonine (T)) sequences. “CHT” denotes the C-terminus Hydrophobic Tail. […]

The target of data set [3] is T1, MCL1. Description: In vivo coimmunoprecipitation assay in U2OS stable transfectants of Fortilin and mutants. Particulars: anti-HA immunoprecipitation.
Description: In vivo coimmunoprecipitation assay. COS-7 cells (2.5×10^6) were cotransfected with pcDNA3-Fortilin-HA or pcDNA3 and with FLAG-MCL1/pFLAG-CMV or pFLAG-CMV vectors using FuGENE6 (Roche Molecular Biochemicals), according to the manufacturer's instructions. […] Formed complexes were precipitated by sheep anti-rat antibodies conjugated to Dynabead™ (Dynal USA); washed with Buffers A and B; eluted into SDS gel loading buffer; and subjected to SDS-PAGE, Western blot transfer and immuodetection with anti-HA (16B12; Covance, Richmond, Calif.) and anti-FLAG (M2; Sigma) antibodies. […] Cells were harvested by scraping, washed with chilled PBS, suspended in Buffer C (Buffer A supplemented with 0.02% NP-40), and lysed by a nitrogen cavitation method (PARR Instrument Co). […] Formed complexes were precipitated by sheep anti-rat antibodies conjugated to Dynabeads™ (Dynal USA); washed with Buffers C; eluted into SDS gel loading buffer; and subjected to SDS-PAGE, Western blot transfer and immuodetection with anti-HA (16B12; Covance, Richmond, Calif.) and anti-MCL1 (Santa Cruz Biotechnology) antibodies.
For data set [4], the target named is T1, MCL1. Description: In vitro pull-down assay of HA-tagged Fortilin or mutants with MCL1. In kind it is binding. To be noted: in vitro translated 35S-labeled proteins, anti-HA pull-down.
In another data set the test system is U2OS cells. To be noted: U2OS stable transfectants of HA-tagged Fortilin or deletion mutants, 5 μg/mL etoposide 48 hours.

Like-named read-outs stand apart in the source and are kept apart here.

T1 sequence (Q07820 whole entry, the tested form may be a part): as the sequence (Q07820 whole entry) above
Sequence of p53 (P04637 whole entry, species assumed): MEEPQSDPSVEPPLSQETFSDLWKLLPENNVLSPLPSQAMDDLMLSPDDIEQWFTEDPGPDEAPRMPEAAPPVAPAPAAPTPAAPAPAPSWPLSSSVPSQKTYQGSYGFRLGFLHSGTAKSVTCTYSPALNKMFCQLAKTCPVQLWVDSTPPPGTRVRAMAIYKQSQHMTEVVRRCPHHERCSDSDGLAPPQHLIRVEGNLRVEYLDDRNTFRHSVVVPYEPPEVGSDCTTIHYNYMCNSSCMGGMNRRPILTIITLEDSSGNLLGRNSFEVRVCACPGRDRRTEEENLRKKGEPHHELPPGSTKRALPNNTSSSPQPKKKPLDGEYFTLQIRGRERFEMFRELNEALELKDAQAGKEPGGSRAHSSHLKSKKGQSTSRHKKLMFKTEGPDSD
Description for U2OS cells: Generation and characterization of U2OS cells stably expressing Fortilin. U2OS cells were transfected with empty pcDNA6, a mammalian expression vector containing a blasticidine resistance gene (Invitrogen, Carlsbad, Calif.), or with pcDNA6 vector encoding wild-type Fortilin, by using FuGENE6 (Roche Molecular Biochemicals) according to the manufacturer's instructions. Transfected cells were selected for approximately 3 weeks and characterized by Western blot analysis. For the cytotoxicity assay, U2OS cells stably expressing wild-type Fortilin (U2OS.F) and U2OS cells stably harboring empty pcDNA6 (U2OS.E) were seeded in a 96 well plate in quadruplicate. For the investigation of dose response, cells were challenged with various concentrations of etoposide (0-20 μg/mL) for 48 hours. For the time course study, cells were challenged with 5 μg/mL of etoposide and harvested after various incubation periods (0-96 hours). In both cases, the cell media were assayed for the lactate dehydrogenase (LDH) activity released from the cytosol of damaged cells, using a cytotoxicity detection kit (Roche Molecular Biochemicals) according to the manufacturer's instructions. The cytotoxicity index was calculated as follows: (LDH activity in the media−background LDH activity)÷(LDH activity in the medium of cells lysed by 1% Triton X-100−background LDH activity)×100.
Cell death assay. U2OS cells stably expressing Fortilin or its mutants were seeded in 96-well plates in triplicate. Cells were then challenged with 5 μg/mL of etoposide (Sigma) for 48 hours. Then the cell media were assayed for the lactate dehydrogenase (LDH) activity released from the cytosol of damaged cells, using a Cytotoxicity Detection Kit (Roche Molecular Biochemicals), according to the manufacturer's instructions. The cytotoxicity index was calculated as follows: (LDH activity in the media−background LDH activity)/(LDH activity in the medium of the cells lysed by 1% Triton X-100−background LDH activity)×100.
Statistical analysis. For analysis of the statistical significance of differences in cytotoxicity indices among cells stably transfected with Fortilin, its mutants or control plasmids, Student's t-test was performed using a commercial software (Minitab Inc., State College, Pa.). In all cases, a P-value less than 0.05 was considered to be statistically significant.

For the molecule “Fortilin-HA: influenza hemagglutinin-tagged Fortilin”, the “co-precipitation of fortilin and p53 in vivo” value with p53 is “the presence of fortilin was necessary and sufficient for the co-precipitation of p53”. Also, the “co-precipitation of FLAG-MCL1 in vivo” value with FLAG-MCL1 is “FLAG-MCL1 was co-precipitated only in the presence of immunoprecipitated Fortilin-HA”. In the data set with MCL1 [1], the “intracellular localization of MCL1” value was “MCL1 was consistently localized in the nucleus just as it was in the cells transfected with empty vector”.

B1: FortilinΔ5-172: nearly full-length Fortilin molecule (amino acids 5-172) (protein)
chain: RDLISHDEMFSDIYKIREIADGLCLEVEGKMVSRTEGNIDDSLIGGNASAEGPEGEGTESTVITGVDIVMNHHLQETSFTKEAYKKYIKDYMKSIKGKLEEQRPERVKPFMTGAAEQIKHILANFKNYQFFIGENMNPDGMVALLDYREDGVTPYMIFFKDGLEMEKC
modifications: left off: small tags and cut ends
Turning to B1, the “interaction with MCL1 in yeast (X-gal activity)” value with MCL1 [2] is “X-gal activity was observed”. Further, in the data set with MCL1 [3], the “co-immunoprecipitation of MCL1 in vivo” value was “co-immunoprecipitated MCL1”. Moreover, the “interaction / co-immunoprecipitation with MCL1 in vitro” value was “interacted” with MCL1 [4] and “co-immunoprecipitated MCL1 in vitro” with MCL1 [4] (listed as Fortilin (5-172)). The “cytotoxicity index relative to control transfectants” value is “significantly lower” in the data set with U2OS cells and “significantly lower than the cytotoxicity index of control cells” in the data set with U2OS cells (listed as fortilinΔ5-172).

(Values after patent publication US7691567B2, “Methods and compositions relating to fortilin, an anti-apoptotic molecule, and modulators of fortilin” (Board of Regents, the University of Texas System, priority 2000, dated 2010).)
